One molecule from patent US9164103B2, “Monitoring and inhibiting human immunodeficiency virus infection by modulating HMGB1 dependent triggering of HIV-1 replication and persistence” (priority 2008, dated 2015) can be followed below.

One experiment deals with RAGE. The experiment in a line: Surface expression of RAGE on DCs (flow cytometry). The experiment is classed as cell-based, human. The following applies: uninfected iDCs, 1 μg/ml. (In general: In flow cytometry, cells or beads pass a laser one at a time.)
Another experiment deals with iDCs. The experiment in a line: Cytokine and chemokine production by DCs (MAP/Luminex). The following applies: iDCs 48 h, 1 or 10 μg/ml. The experiment is classed as cell-based, human. On the procedure: FIG. 3 (a)-(e). aNK-dependent maturation of HIV-1-infected iDCs is mediated by HMGB1 and involves RAGE. (a) Left panel: iDCs were cultured for 24 h either alone or with aNK cells, in the presence of blocking anti-HMGB1 antibodies (10 μg/ml) or glycyrrhizin (10 μg/ml). The maturation status of DCs was determined by flow cytometry with CD86 and HLA-DR—specific antibodies. Right panel: same experiment, but performed with HIV-1 infected iDCs. Data represent mean±sd of at least three independent experiments, and statistical comparisons were made with the non parametric Mann-Whitney test. * p<0.05. (b) iDC (10^6 cells/ml) were cultured for 48 h with increasing concentrations (1-10 μg/ml) of rh-HMGB1. Cells were then stained with anti-CD86, -HLA-DR, -CD80, -CD83, DC-LAMP and -CD40 antibodies and analyzed by flow cytometry. (c) Influence of rh-HMGB1 on cytokine and chemokine production (determined by MAP) by DCs. iDCs (10^6 cells/ml) were incubated for 48 h in medium or in presence of rh-HMGB1 (1 or 10 μg/ml). As a positive control, iDCs were stimulated with LPS (DC0). […] (e) iDC, DC0, uninfected or HIV-1-infected iDC cocultured for 24 h with aNK cells, were incubated with rh-HMGB1 (1 μg/ml) and subsequently stained with anti-RAGE antibodies and analyzed by flow cytometry. […]

The next experiment has as its system HIV-2. The experiment in a line: HIV-2 replication in infected iDCs (p24 ELISA in culture supernatant). The experiment is classed as cell-based. To be noted: HIV-2-infected iDC, day 3. How it is done:
FIGS. 6 (a), (b) and (c). Exogenous rh-HMGB1 triggers HIV-1 and HIV-2 replication in iDC. (a) HIV-1-infected iDC were cultured alone or in the presence of aNK cells for 3 days. Rh-HMGB1 (1 μg/ml) was added in some cultures. HIV replication was measured by p24 quantification in culture supernatant (b) HIV1-infected iDC were cultured alone or in the presence of aNK cells for 3 days. Blocking anti-HMGB1 antibodies (10 μg/ml) or glycyrrhizin (10 μg/ml) were added at culture initiation. HIV replication was measured by p24 quantification in culture supernatant. The mean±sd of three independent experiments is shown. Statistical comparisons were made with the non parametric Mann-Whitney test. * p<0.05; (c) HIV-2-infected iDC were cultured alone or in the presence of aNK cells for 3 days. Rh-HMGB1 (1 μg/ml) was added in some cultures. HIV replication was measured by p24 quantification in culture supernatant. […]
2—NK-DC cocultures: cells were harvested, washed three times with RPMI containing 10% FCS and, when indicated, aNK cells were added at a NK:DC ratio of 1:5. […] NK-DC cocultures lasted 3 to 7 days before quantification of viral production in culture supernatants.
3—Quantification of HIV-2 viral production: the concentration of HIV-2 particles in the supernatants was determined with the p24 ELISA kit (Ingen, Belgium).
Background: An ELISA detects its analyte on a solid surface through an enzyme-linked reagent.

For a further experiment, the system named is R5-HIV-1Ba-L. The experiment can be described thus: HIV-1 replication in infected iDCs (p24 ELISA in culture supernatant). The experiment is classed as cell-based. To be noted: 3 days, 1 μg/ml. How it is done: FIGS. 6 (a), (b) and (c). Exogenous rh-HMGB1 triggers HIV-1 and HIV-2 replication in iDC. (a) HIV-1-infected iDC were cultured alone or in the presence of aNK cells for 3 days. Rh-HMGB1 (1 μg/ml) was added in some cultures. HIV replication was measured by p24 quantification in culture supernatant (b) HIV1-infected iDC were cultured alone or in the presence of aNK cells for 3 days. Blocking anti-HMGB1 antibodies (10 μg/ml) or glycyrrhizin (10 μg/ml) were added at culture initiation. HIV replication was measured by p24 quantification in culture supernatant. The mean±sd of three independent experiments is shown. Statistical comparisons were made with the non parametric Mann-Whitney test. * p<0.05; (c) HIV-2-infected iDC were cultured alone or in the presence of aNK cells for 3 days. Rh-HMGB1 (1 μg/ml) was added in some cultures. HIV replication was measured by p24 quantification in culture supernatant.
Exogenous HMGB1 was recently reported to increase HIV-1 replication in infected monocytic cell lines38, and to induce in vitro the reactivation of HIV-1 in PBMCs from HIV-1-infected patients under antiretroviral therapy39. Therefore, the question of the role of HMGB1 in the NK-dependent triggering of HIV replication in DCs was addressed. […] To investigate the influence of HMGB1 in the triggering of HIV-1 replication in infected-iDC-aNK cocultures, HMGB1-specific neutralizing antibodies or glycyrrhizin were added to these cocultures and p24 production was measured in the supernatant. […] They also indicate that aNK cell-dependent stimulation of HIV-1 replication in iDCs is mediated by HMGB1.
Virus stock preparation was prepared by amplification of R5-HIV-1Ba-L on MDM from healthy donors. Viral stock was then clarified by centrifugation prior to determination of HIV1 p24 concentration. iDCs were plated in 96-well culture plates at 200,000 cells/well and incubated for 3 hours at 37° C. in a 5% CO2 atmosphere with R5-HIV-1BAL at various concentrations (0.001 to 10 ng p24/ml). Cells were harvested, washed four times with media containing 10% FCS and, when indicated, rNK or aNK cells were added at a NK:DC ratio of 1:5, unless otherwise indicated. NK-DC cocultures lasted 24 h before analysis of the maturation stage of DCs and/or quantification of viral production. In some experiments (FIG. 6), HIV-1 infected iDCs were incubated alone or with aNK cells for 3 days, in the presence of rh-HMGB1 (1 μg/ml) (R&DSystems), and in some cultures in the presence of rabbit antiHMGB1 Abs (10 μg/ml) (Abcam, Cambridge, UK) or Glycyrrhizin (10 μg/ml).
The concentration of HIV-1 in the supernatant of infected cell cultures was determined by measuring the amount of p24 protein by ELISA (Ingen, Belgium). DNA from cells was extracted using the GIAamp DNA Blood Mini Kit (Qiagen, Basel, Switzerland) and quantified HIV-1 proviral load by RT-PCR as described previously54. The frequency of HIV-1-infected cells was determined by flow cytometry to detect intracellular p24 molecule. Cells were surface stained with antibodies specific for CD40 (BD Biosciences, San Jose, Calif.) to target DC and intracellular stained with p24-specific antibodies (Coulter). Stained cells were fixed in 1% PFA, immediately acquired on a FACScalibur (Becton Dickinson) and analyzed with FlowJo software. In some experiments infected DCs were imaged, after immunofluorescence, by laser scanning confocal microscopy.

Another experiment has as its system iDC. The experiment in a line: Direct phenotypic maturation of iDCs (flow cytometry of maturation markers). The experiment is classed as cell-based, human.

Experimental for RAGE: (d) Flow cytometry detection of surface expression of RAGE by iDCs, DC0, or iDCs incubated with rh-HMGB1 (1 μg/ml). iDCs were either non infected or infected with HIV-1 (1 ng/ml p24 for 3 h). (e) iDC, DC0, uninfected or HIV-1-infected iDC cocultured for 24 h with aNK cells, were incubated with rh-HMGB1 (1 μg/ml) and subsequently stained with anti-RAGE antibodies and analyzed by flow cytometry. NK cells were excluded from the analysis through the co-staining with CD3- and CD56-specific antibodies (CD3^−CD56^+).
The possible involvement of RAGE during NK-DC cross-talk was evaluated with the same approach, comparing RAGE expression on DCs cocultured with aNK cells and DC cultured alone.
Phenotypic analysis of DCs and characterization of their maturation stage was performed by flow cytometry. DCs were stained for 20 min at 4° C. with antibodies specific for CD80, CD83, CD86, HLA-DR, CD40, DC-LAMP or DC-SIGN (all antibodies from BD Biosciences, San Jose, Calif.) diluted in 100 μl of PBS/10% FCS/0.1% NaN3. In some experiments, antibody specific for HMGB1-receptor, RAGE (Abcam), was used to stain DCs. After two washings, cells were fixed in 1% PFA, immediately acquired on a FACScalibur (Becton Dickinson) and analyzed with Flow Jo software.

B1: rh-HMGB1: recombinant human HMGB1 protein (R&D Systems), added exogenously (protein, UniProt P09429 1-215, looked up)
High mobility group protein B1: MGKGDPKKPRGKMSSYAFFVQTCREEHKKKHPDASVNFSEFSKKCSERWKTMSAKEKGKFEDMAKADKARYEREMKTYIPPKGETKKKFKDPNAPKRPPSAFFLFCSEYRPKIKGEHPGLSIGDVAKKLGEMWNNTAADDKQPYEKKAAKLKEKYEKDIAAYRAKGKPDAAKKGVVKAEKSKKKKEEEEDEEDEEDEEEEEDEEDEDEEEDDDDE
Consider B1, for which the “RAGE expression on iDCs” value with RAGE was “down-regulation of RAGE”. Moreover, the “release of the chemokines MCP1, MIP-1α, MIP-1β and IL-8” value in the experiment with iDCs is on record as “increased release”. For the same molecule, the “HIV-2 viral replication (p24)” value with HIV-2 is recorded as “slight increase in viral replication”. Further, the p24 production result in the experiment on R5-HIV-1Ba-L (HIV-1-infected iDC cocultured with aNK cells) is listed as “significant stimulatory effect”. Besides, the “production of p24 in culture supernatants” value in the experiment with R5-HIV-1Ba-L (HIV-1-infected iDC cultured alone) is “enhancing dramatically the production of p24”. Besides, the “percentage of CD86bright HLA-DRbright DCs” value with iDC (10 μg/ml, 48 h of culture, medium alone 65%) is recorded as 71%. In addition, the “phenotypic maturation of iDC” value with iDC (1 to 10 μg/ml, 24 h, similar at 48 h) is given as “did not induce phenotypic maturation of iDC”. The “expression of CD80, CD83 and DC-lamp” value in the experiment on iDC (rh-HMGB1-treated DCs compared with mDC (DC0)) was “not fully mature”.
